Substitutions are numbered along the chain they refer to. Read-outs that look alike come from different tables or passages of the source.
How the values were obtained:
crystal structure [1] = target: the molecule itself; assay: crystal structure
crystal structure [2] = target: the molecule itself; assay: crystal structure; remark: listed apart in the source

B1: Neurospora crassa C-S lyase Egt2, wild type (enzyme, UniProt A7UX13 1-473, looked up)
chain: MVATTVELPLQQKADAAQTVTGPLPFGNSLLKEFVLDPAYRNLNHGSFGTIPSAIQQKLRSYQTAAEARPCPFLRYQTPVLLDESRAAVANLLKVPVETVVFVANATMGVNTVLRNIVWSADGKDEILYFDTIYGACGKTIDYVIEDKRGIVSSRCIPLIYPAEDDDVVAAFRDAIKKSREEGKRPRLAVIDVVSSMPGVRFPFEDIVKICKEEEIISCVDGAQGIGMVDLKITETDPDFLISNCHKWLFTPRGCAVFYVPVRNQHLIRSTLPTSHGFVPQVGNRFNPLVPAGNKSAFVSNFEFVGTVDNSPFFCVKDAIKWREEVLGGEERIMEYMTKLAREGGQKVAEILGTRVLENSTGTLIRCAMVNIALPFVVGEDPKAPVKLTEKEEKDVEGLYEIPHEEANMAFKWMYNVLQDEFNTFVPMTFHRRRFWARLSAQVYLEMSDFEWAGKTLKELCERVAKGEYKESA
modifications: PLP covalently bound to K247 (internal aldimine); selenomethionine in the derivative crystals used for the final structure
stoichiometry N (crystal structure [1]): 2

B2: Neurospora crassa C-S lyase Egt2 Y134F (enzyme, UniProt A7UX13 1-473, looked up)
chain: B1 chain with Y134F
modifications: PLP covalently bound to K247 (internal aldimine)
stoichiometry N (crystal structure [2]): 2

Reference: PMC5959753 (Cell chemical biology, 2018)
